# Assay results reported in publication PMC3715468, “Structural and Functional Characterisation of TesA - A Novel Lysophospholipase A from Pseudomonas aeruginosa” (PLoS ONE, 2013).
# What was measured:
# Assay in all cases: purified protein
# Format in all cases: biochemical, Pseudomonas aeruginosa
# [1] = tested on: CCCCCCCCCCCC(=O)OC[C@@H](O)COP(=O)([O-])OCC[N+](C)(C)C; conditions: pH 7.2; 37.0 °C
# [2] = tested on: CCCCCCCCCCCCCCCC(=O)OC[C@@H](O)COP(=O)([O-])OCC[N+](C)(C)C; conditions: 20 mM Tris-HCl pH 7.2, 37 °C, 0.25% (v/v) Triton X-100, 1.5 mM NaN3, 30 min
# [3] = tested on: CCCCCC(=O)OC[C@@H](O)COP(=O)([O-])OCC[N+](C)(C)C; conditions: pH 7.2; 37.0 °C
substance,measurement,setting,value
TesA (Pseudomonas aeruginosa PAO1),Km,[1],1.78 ± 0.17 mM
same,kcat/Km,[1],1.1e+06 M⁻¹ s⁻¹
same,Km,[2],2.04 ± 0.18 mM
same,kcat,[2],921 s⁻¹
same,kcat/Km,[2],450000 M⁻¹ s⁻¹
same,Km,[3],7.22 ± 0.92 mM
same,kcat/Km,[3],110000 M⁻¹ s⁻¹
